# Assay results as given in the DeepSol protein solubility set.
# Assay: soluble on expression in E. coli; label from the status in PepcDB or PDB records
row,Sequence,soluble on expression in E. coli
1,SLQKEANKTYHSSLKDGKLILLLDLDNTLLQATSFAKFNMELPLENFVDDNGEAELYKFYLPQYNFFYYLKFRPYVRQFLQILSLYYELAIYTNATREYADVVIAILDPDRTIFSDRIVARCSSTDRDENKYFSRIYPNVDPKYVIAFDDRKDVWIDIPQSHILKAEHYNFFELSKYDIIS,not soluble
2,SLQLHFTNDALPDNVSTDFQNLNKFSEQQFVSLTDILYQFLLEPKESERFLHQLTEFAGENGMSAGPLRALMKSILLLPHGALKRNLTAEQIKLDLLSLGLNEDKASHFSDQWRVHYPVLARLAVGQTLMVNQLVDMEWKFGVTVGTSELQKTGNIFLQLKLVIRKGNMTENVYMELTLPQFYSFLHEMERAKASMDCFS,soluble
3,SLQSIIGKHKDEGKITPEYLKKIDAYWRAANFISVGQLYLLDNPLLREPLKPEHLKRKVVGHWGTIPGQNFIYAHLNRVIKKYDLDMIYVSGPGHGGQVMVSNSYLDGTYSEVYPNVSRDLNGLKKLCKQFSFPGGISSHMAPETPGSINEGGELGYSLAHSFGAVFDNPDLITACVVGDGEAETGPLATSWQANKFLNPVTDGAVLPILHLNGYKISNPTVLSRIPKDELEKFFEGNGWKPYFVEGEDPETMHKLMAETLDIVTEEILNIQKNARENNDCSRPKWPMIVLRTPKGWTGPKFVDGVPNEGSFRAHQVPLAVDRYHTENLDQLEEWLKSYKPEELFDENYRLIPELEELTPKGNKRMAANLHANGGLLLRELRTPDFRDYAVDVPTPGSTVKQDMIELGKYVRDVVKLNEDTRNFRIFGPDETMSNRLWAVFEGTKRQWLSEIKEPNDEFLSNDGRIVDSMLSEHLCEGWLEGYLLTGRHGFFASYEAFLRIVDSMITQHGKWLKVTSQLPWRKDIASLNLIATSNVWQQDHNGYTHQDPGLLGHIVDKKPEIVRAYLPADANTLLAVFDKCLHTKHKINLLVTSKHPRQQWLTMDQAVKHVEQGISIWDWASNDKGQEPDVVIASCGDTPTLEALAAVTILHEHLPELKVRFVNVVDMMKLLPENEHPHGLSDKDYNALFTTDKPVIFAFHGFAHLINQLTYHRENRNLHVHGYMEEGTITTPFDMRVQNKLDRFNLVKDVVENLPQLGNRGAHLVQLMNDKLVEHNQYIREVGEDLPEITNWQWHV,soluble
4,SLRLKISLLSPADSFEIDLNHSYHLASAIYRAIERADPSLSIELHKPDVPKFFTFSKLFIPKRKFRIEGEKMVSDCEEAYFFFSTLRNEVAASLVEGLLSKPEIRICGVDFIVSEVSVLPEREVKGREKFVTLSPIYASTSVGENGRRRIFDLYPKDSKFYEVILQNLVKKYVLYYKSAPENLDFHMKPLNVKAKRIRLKDTFHRCVEMVFKAEGSPELLDVGYKAGFGSKNSMGFGMVKVV,soluble
5,SLSDTQEPVKLRIVHFNDVYNVFSISGGLGGGAAPFCTGLREKRGPDGLVLFSGDIFSPSPLSEASKGRQMAELLNYLDVHTSCYGNHDLDFGWEWLELLAGTTKCKWVMSNARSKIGGGVLANAQRYRIFEWGTTQRVVVGIMALIEEDWIDTLNAPDQEEIVYQDFVEAGREMVALFRRRGCDLVIALTHMRWNNDEKLAREVDGIDLILGGHDHAYVTKLVNGTAVIKSGSDFREFSAITLTPKLHLREQGTSHATGFSADHDSLAADGKNGYPVAFSGSTGGVAEVDGLCRQHGDSSHAVKRAGVCECLGRTQPVRQTKPEVVEGIHTEETQPAKLWSSGRWWLSCEKVCVSADRFEADDSVMEMLVRYQTTYGNSQGCVLGAFPVLLETRFCEVRTRECNSGNWLADLMREYYGVDVALYNSGGIRSDCVFAEGEVVTSETLHAILSGTRQLDVIAVPGNLFKSILETSVSRWPQLEGRFLQVSGLRFVFEGSARVGERVLADEIQFRNRETGDWEPLVPDRVYSVATATFLARGGDGLSVLVDCPPLDTPQRNIRDLSELARLWFCRQHRKCGFEDVEEIPPRECEWIDR,not soluble
6,SLSERVRTYWIIIELKHKAREKPYDSKSLRTALQKEITTRYQLDPKFITSILYENNVITIDLVQNSSQKTQNDVDIADVAYYFEKDVKGESLFHSKKMDLTVNGEQLDLDPGQTLIYYVDEKAPEFSEG,soluble
7,SLSGNGFDAILALSHRTSHTTYGNPFFSDVIQSISAVSEQNNFDLILQTAKTPEEELEKCAKKIQEKMIRGIIILSSTMDETLLFELDQYNIPIVVIGKVGNDYTNIYSVDTDNFQDSYDLVETLIKNGHRHIGCLHAPTEVYVSNDRLNGYRQCLFDHHLDIRNEWIIDGGFRLEDSMAAMNDLMKLRERPTAIFSTDALKSLSIYKVAEQSGKQIPDDLSIAGFSDPLLSSLFSPQLTRIDIPTNQLGIKATELLFQLIHHQYPEEKRIILSTEITLTDSI,soluble
8,SLSLRPSPRLLCTATKQKNSGQNLEEDMGQSEQKADPPATEKTLLEEKVKLEEQLKETVEKYKRALADTENLRQRSQKLVEEAKLYGIQAFCKDLLEVADVLEKATQCVPKEEIKDDNPHLKNLYEGLVMTEVQIQKVFTKHGLLKLNPVGAKFDPYEHEALFHTPVEGKEPGTVALVSKVGYKLHGRTLRPALVGVVKEA,soluble
9,SLSSLEGQENSFTINSVDMKSLPDWTVQNGKNLTLQCFADVSTTSHVKPQHQMLFYKDDVLFYNISSMKSTESYFIPEVRIYDSGTYKCTVIVNNKEKTTAEYQLLVEGVPSPRVTLDKKEAIQGGIVRVNCSVPEEKAPIHFTIEKLELNEKMVKLKREKNSRDQNFVILEFPVEEQDRVLSFRCQARIISGIHMQTSESTKSELVTVTESFSTPKFHISPTGMIMEGAQLHIKCTIQVTHLAQEFPEIIIQKDKAIVAHNRHGNKAVYSVMAMVEHSGNYTCKVESSRISKVSSIVVNITELFSKPELESSFTHLDQGERLNLSCSIPGAPPANFTIQKEDTIVSQTQDFTKIASKSDSGTYICTAGIDKVVKKSNTVQIVVCEMLS,soluble
10,SLVYDGNNKLIADLGSEKRESVSADSIPLNLVNAITSIEDKRFFKHRGVDIYRILGAAWHNLVSSNTQGGSTLDQQLIKLAYFSTNKSDQTLKRKSQEVWLALQMERKYTKEEILTFYINKVYMGNGNYGMRTTAKSYFGKDLKELSIAQLALLAGIPQAPTQYDPYKNP,not soluble
11,SLYDGDCPLCMREVNMLMERNEKHGTIKFVDISSNDYSPEDNQGLDYKTVMGQIHAIQSDGNVVKGVEAFRRLYEEVGLGWVYTITKFEPIGKLADVVYDVWAKYRLQVTGRPSIEAILEARKKDKVGNKGYRFSVVVTFAR,soluble
12,SMGAGGGGSAEQLDALVKKDKVVVFLKGTPEQPQCGFSNAVVQILRLHGVRDYAAYNVLDDPELRQGIKDYSNWPTIPQVYLNGEFVGGCDILLQMHQNGDLVEELKKLGIHSALLDE,soluble
13,SMNNKEVELYGGAITTVVPPGFIDASTLREVPDTQEVYVNSRRDEEEFEDGLATNESIIVDLLETVDKSDLKEAWQFHVEDLTELNGTTKWEALQEDTVQQGTKFTGLVMEVANKWGKPDLAQTVVIGVALIRLTQFDTDVVISINVPLTKEEASQASNKELPARCHAVYQLLQEMVRKFHVVDTSLFA,soluble
14,SMQPIVIHSSGKNYGFTIRAIRVYVGDSDIYTVHHIVWNVEEGSPACQAGLKAGDLITHINGEPVHGLVHTEVIELLLKSGNKVSITTTPFENTETSV,soluble
15,SMQQRKVLTLEKEDNQTFGFEIQTYGLHHREEQRVEMVTFVCRVHESSPAQLAGLTPGDTIASVNGLNVEGIRHREIVDIIKASGNVLRLETLYSSTL,soluble
16,SMRTAQEVETYRRSKEITVRGHNCPKPVLNFYEANFPANVMDVIARQNFTEPTAIQAQGWPVALSGLDMVGVAQTGSGKTLSYLLPAIVHINHQPFLERGDGPICLVLAPTRELAQQVQQVAAEYCRACRLKSTCIYGGAPKGPQIRDLERGVEICIATPGRLIDFLECGKTNLRRTTYLVLDEADRMLDMGFEPQIRKIVDQIRPDRQTLMWSATWPKEVRQLAEDFLKDYIHINIGALEL,soluble
17,SNAIGLIITALPEPYWIVLHDRIVNVISSSSLTSETEWVGYPFRLFDFTACHQSYSEMSCSYTLALAHAVWHHSSIGQLSLIPKFLTEALLPVVKTEFQLLYVYHLVGPFLQRFQQERTRCMIEIGVAFYDMLLNVDQCSTHLNYMDPICDFLYHMKYMFTGDSVKEQVEKIICNLKPALKLRLRFITHISKMEPAVPPQALNSGSPAPQSNQVPASLPVTQ,soluble
18,SNAKVTVGKSAPYFSLPNEKGEKLSRSAERFRNRYLLLNFWASWCDPQPEANAELKRLNKEYKKNKNFAMLGISLDIDREAWETAIKKDTLSWDQVCDFTGLSSETAKQYAILTLPTNILLSPTGKILARDIQGEALTGKLKELLKTE,soluble
19,SNALNLPYDEHADAWTQVKKALAAGKRTHKPTLLVFGANWCTDCRALDKSLRNQKNTALIAKHFEVVKIDVGNFDRNLELSQAYGDPIQDGIPAVVVVNSDGKVRYTTKGGELANARKMSDQGIYDFFAKITE,soluble
20,SNAMAAKKPLFEVIASKIKDSINRDEYKTGMLMPNETALQEIYSSSRTTIRRAVDLLVEEGLVVRKNGVGLYVQPKLTAQNILEMTGVMKNDTNENLKKDIKDFYIRKAGKFYAEIFGMKENELVYSIKFVQKSEHGATLDRLILPLGLYPDLQAKDFQIINIIELVNSGKYKLFELEQELQLILAGNEQIKNMHLNENDPVFKLSSVFYAENDMPIAIQYHYEDAESTKYVVDFN,soluble
21,SNAMDKYPFLREAGSSFKDRDVTKMSDLIATWDGQDIKGPALIGVPLSKSSISHSGASFAPGTIRQALKHSSAYSAELGEHVVSELLYDLGDIDIHVTDIVKSHHHIFQTMHALLSDHPDWVPLILGGDNSISYSTIKAIAQTKGTTAVIQFDAHHDVRNTEDGGPTNGTPFRRLLDEEIIEGQHLIQLGIREFSNSQAYEAYAKKHNVNIHTMDMIREKGLIPTIKEILPVVQDKTDFIFISVDMDVLDQSHAPGCPAIGPGGLYTDELLEAVKYIAQQPNVAGIEIVEVDPTLDFRDMTSRAAAHVLLHALKGMKLSPFK,soluble
22,SNAMEKYILSIDQGTTSSRAILFNQKGEIAGVAQREFKQYFPQSGWVEHDANEIWTSVLAVMTEVINENDVRADQIAGIGITNQRETTVVWDKHTGRPIYHAIVWQSRQTQSICSELKQQGYEQTFRDKTGLLLDPYFAGTKVKWILDNVEGAREKAENGDLLFGTIDTWLVWKLSGKAAHITDYSNASRTLMFNIHDLEWDDELLELLTVPKNMLPEVKASSEVYGKTIDYHFYGQEVPIAGVAGDQQAALFGQACFERGDVKNTYGTGGFMLMNTGDKAVKSESGLLTTIAYGIDGKVNYALEGSIFVSGSAIQWLRDGLRMINSAPQSESYATRVDSTEGVYVVPAFVGLGTPYWDSEARGAIFGLTRGTEKEHFIRATLESLCYQTRDVMEAMSKDSGIDVQSLRVDGGAVKNNFIMQFQADIVNTSVERPEIQETTALGAAFLAGLAVGFWESKDDIAKNWKLEEKFDPKMDEGEREKLYRGWKKAVEATQVFKTE,soluble
23,SNAMHNHNNRLVITPGEPAGVGPDLAITLAQQDWPVELVVCADPALLLARASQLNLPLQLREYQADQPAIAQQAGSLTILPVKTAVNVVPGKLDVGNSHYVVETLAKACDGAISGEFAALVTGPVQKSIINDAGIPFIGHTEFFADRSHCQRVVMMLATEELRVALATTHLPLLAVPGAITQASLHEVITILDNDLKTKFGITQPQIYVCGLNPHAGEGGHMGHEEIDTIIPALNTLRQQGINLIGPLPADTLFQPKYLQHADAVLAMYHDQGLPVLKYQGFGRAVNITLGLPFIRTSVDHGTALELAATGTADVGSFITALNLAIKMINNSNE,soluble
